Values of other authors, collected in paper PMC6800417.

Molecular target: EGFR (Homo sapiens) (UniProt P00533)

Kd: 1.3 nM
Substance: 111In-DTPA-hEGF (from UniProt P01133)
